Laboratory results published in the DeepSol protein solubility set.

Experiment: soluble on expression in E. coli; label from the status in PepcDB or PDB records

Sequence	soluble on expression in E. coli
MAVTAQAARRKERVLCLFDVDGTLTPARQKIDPEVAAFLQKLRSRVQIGVVGGSDYCKIAEQLGDGDEVIEKFDYVFAENGTVQYKHGRLLSKQTIQNHLGEELLQDLINFCLSYMALLRLPKKRGTFIEFRNGMLNISPIGRSCTLEERIEFSELDKKEKIREKFVEALKTEFAGKGLRFSRGGMISFDVFPEGWDKRYCLDSLDQDSFDTIHFFGNETSPGGNDFEIFADPRTVGHSVVSPQDTVQRCREIFFPETAHEA	soluble
MAYDIERYLDIRGAGDPTYGPTGELAFTLGTTGTAQVWALGAPGAWPTQLTFHDERVQWASFSPTREELAYGMDTGGDEFTQLHRVSGDGSEDVQLTAFPDAKHDWGGWSHDGDRIAYTANRRDASRFDVYVQGRDEAGANADCVRVGDTFDLPSVVGWSPSDDRLLVVDTHSNFDQDVAVLDVDTGEITRATAGLDADTRFSWVAWAPDGGGVYVTTDHDADTRYLGLLDPETGAISRVADGGDWPIEAVVTAHDAGRLAYVRNRDGYSELTIADAAGTTLTEQPTPELPDGVIRGLSWGPDGDTLAVVVSAATENPNVFVVDVATGAATQWTNAATAGIPKSTFREPELVRYETFDGREIPALFTRPDGDGPHPVIVDFHGGPEGQRRPSFLSLRQYFVDNGYAVFEPNVRGSSGYGATYMNLDNVRNRMDAVADGKAGVEWLTARTDIDADRVVAYGGSYGGFMVLASLTEYPELWAAGVDIVGIANFVTFLENTGDWRREHRESEYGSLDADREFLESISPTNNADRIRAPLLVLHGANDPRVPVGEAERIVEQASAHVPVEKHVFDDEGHGFSKRANKQAAYRAVVDFLDDHALEHHHHHH	not soluble
MAYDIFLKIDGIDGESMDDKHKNEIEVLSWRWNIHQESTMHAGSGLGSGKVSVTNLDFDHYIDRASPNLFKYCASGKHIPQAILVMRKAGGNPLEYLKYTFTDLIVAVVSPSGSHDGEIASRETVELSFSTVKQEYVVQNQQGGSGGTITAGYDFKANKEI	not soluble
MAYPGHPGAGGGYYPGGYGGAPGGPAFPGQTQDPLYGYFAAVAGQDGQIDADELQRCLTQSGIAGGYKPFNLETCRLMVSMLDRDMSGTMGFNEFKELWAVLNGWRQHFISLDTDRSGTVDPQELQKALTTMGFRLSPQAVNSIAKRYSTNGKITFDDYIACCVKLRALTDSFRRRDTAQQGVVNFPYDDFIQCVMSV	soluble
MCDCLSIILLVKMKKIYLKFVDFWDGFDTISNFIVDALSIQYEVVLSNEPDYLFYSCFGTSHLEYDCIKIMFIGENIVPDFNVCDYAIGFNYIDFGDRYLRLPLYAIYDGFSNLQNKKIDVNKALDRKFCSIVVSNNKWADPIRETFFKLLSSYKKVDSGGRAWNNIGGPVDNKLDFISQYKFNIAFENSRVLGYTTEKIMEPMQVNSIPVYWGNPLVGKDFNVDSFVNAHDFDSLERLVEYIIELDSSKDKYLEMLEKPWLLDKTYLDWKQLLLNFINNIMMKSYKDAKYLVNYGHAGKYRNEQRFWGRCERKFKLQRIIEYYSQLFDRKLEHHHHHH	not soluble
MCDIGNLTQYRQAQEDILRGRVKVRVVGQDKGGGVVMGEGVEIAPGARIEGPVLIGGACHIATGAVVGPFTVLGPYTRVEEGATVRRSVLWDNVYTGEGANVRGLEHHHHHH	not soluble
MCECYQFYRMRITQSAQICLSVIKKSQKTGFGPNRLQRKGTHFVGTEPPVLKYHILQDKKPNEEYGLQGTNHELPGTGKVHSKLPTKVHMKKDKVYAWCSCGYSGSQPLCDGSHNSIRIPDLKLKPVRFIPDKDMTVWLCNCKQTNNRPFCDGSHKTVTDEDKKAGLFD	not soluble
MCGIIGFMSRTGRLISGDRIATALNCLKERGNGEGSGYVGYGIYPDYKDDYAIHVFLDATKDYDRIRHEVEEVLVKYGYILKDEEIPTEEGIIKQEQVSWRFFYRFDEKYKTVEEDLMVDIVMDINAKIDGAFVFSSGKNMGVFKAAAWPLEVAEYFKIDQYKGFQWLSHARYPTNTKGWWGGAHPFNLLGWSVVHNGEITSYGANKRYVESFGYKCKLLTDTEVVAYLFDLLIRKHKIPVEYAMSALAPRFWDEIEIMSEEDKKIHEAIRMTYGGATMNGPFGIVVGTQEGMVFMNGEVEEGNTMVGLTDRIKLRPLVAAEKDDLLFVSSEESAIRKICPELDRVWMPDAGRMVIAKLEKKI	not soluble
MCGIVGANSTRNVTNILIEGLKKLEYRGYDSAGLAIIDDKNNIDICKEVGKVIELEKSVHNLANFKGDIGIAHTRWATHGKPSKNNSHPHASESFCIVHNGVIENFAELKKVLINDGYKFKSDTDTEVIAHLLQKEWRDNFSIVDNIKYIMAMLKGAYAVAIISQKFSDKIVAVRSGSPLVIGVGIDENFISSDALSLLPVTNKFSYLDEGDIAIISKDNVEVFDNNGAAKNLEVEEYNYSSSSASKDGYKHYMLKEIYEQPEAVSNTILASLADGEISLDSFDKRAKELFEKTKHICIVACGTSYNAGMTAKYWIEKYAKVPCSVEIASEIRYRDNVVVDGSLFVSISQSGETADTLESLRKSKKQNYVGSMCICNVPNSSLVRESDIAFMTKAGVEIGVASTKAFTTQLVALAIFTLVIAKLKNSLTDQQIAKYTEELKNIRALVMGALKLDTEIDQISEYFSDKEHTIFLGRGLYYPIAIEGALKLKEISYIHAEAYPSGELKHGPLALVDKNMPIVAVVPNDELLDKTLSNLQEVHARGGKLILFVDKAVKERVNFDNSIVLELDAGHDFSAPVVFTIPLQLLSYHVAIIKGTDVDQPRNLAKSVTVE	not soluble
MCGRFVLFTTDESLLGHPALRIFHSIHAPKGMPPARYNIAPTTIIPILRVGTTPTEAVIEPARWGLIPAWKREVTLPPLFNARAETVTTKPSFRQAFSTQRCAIPMDGYYEWHNKKPYWITTGAPTWVAGLWDSGAGMLSATMITTDSVAPLDWLHHRMPRFLNNDELAVWLRGSADEASGLLTPGDASAFHTSLADPSVGNIRNDYPELIDAPTDLFSLLEHHHHHH	soluble
MCGVSLSVIIETLYFACRFRMVEKFLNQSVIWCRSGALRHCRTCGRGRAADTAFTLGDGSKRMGGCVQKEKNEAQKGEKGYRFRLFTGK	not soluble
MCLDVLIHYPQEKADEMISHLCSLAQSRIILSFAPKTCALTLLKKIGSFFPGPSKTTRAYLHREADVIKILESNGFAIQRKEFTKTRFYFSRILEATRSLEHHHHHH	not soluble
MCMEKFYKVGTIVNTQGLQGEVRVMPSTDFAQERFSKGSVLALFDDKDNYIQDLKVKSGRPQKNFYVVKFEGFYHINDVEKYKGYIVKIAEENQEDLDDGEFYYHEIIGSDVYENDILIGQISEILQPGANDVWVVKRKGKRDLLLPYIPPVILNVDVNQHRVDVSIMEGLDDLEHHHHHH	soluble
MCMHNSGFNLNLPPWVIASRHFNDNPHPLEVQGVRLANRFLFERLDAIASPDERGTVFNDYMSVKFQLHLWQEQATPSARKSLKNSYLRYLRGWMMDSNSVEGAVLKGWVESRMGIVPSFHKARITGIHTESYYGYVVDRTAGSKRTSAINSQLDILYEFCQYELARRFPGELWVTLYRGTFAADDYDVVEELGRREKIIRFNNLVSFTSHEERAWEFGSTVWEIRAPLSKVFFFDDLLPGSILKGEGEYLVIGGEYRVRRVMCTVLEHHHHHH	not soluble
MCMVMREYNKERLRKAIELWYREEGVRIIKDRVEHYLKFYPVKPRSIKVKEQKRRWGSCTYYNDLLFNWRCIMAPLKVVDYIVVHEMTHMVHKDHSKNYWNFVSKIIPNYKEQKMWLKENGIIMDIMAGDPLEHHHHHH	soluble
